This note sets out measurements from the supplement of paper PMC9112550, “Optimization of the antimicrobial peptide Bac7 by deep mutational scanning” (BMC Biology, 2022).
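Also: peptides expressed intracellularly from a pBAD plasmid library in pooled LB shake-flask culture, induced with 0.3% L-arabinose, DNA abundance read by NGS, three biological replicates, DESeq2 with apeglm shrinkage.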

This data set relates to Escherichia coli TOP10. Kind of data set: shrunken log2 fold change of peptide-encoding DNA abundance (4.5 h post-induction vs induction); higher = less antimicrobial activity (less host growth inhibition). The following applies: time post-induction: 4.5 h; library: site-saturation at positions 5, 18, 19, 20.
For RRIRQRPPRLPRPRPRPEWTPRP, the “shrunken log2 fold change” value is -0.00618. With RRIRERPPRLPRPRPRPEDNPRP, the “shrunken log2 fold change” value was 0.0813. Take RRIRFRPPRLPRPRPRPMQLPRP: the “shrunken log2 fold change” value was determined as 0.0166. For RRIRMRPPRLPRPRPRPFAEPRP the value was 0.625; for RRIRFRPPRLPRPRPRPPVYPRP, -0.124; for RRIRQRPPRLPRPRPRPNDKPRP, -0.335. RRIRERPPRLPRPRPRPIWDPRP: the “shrunken log2 fold change” value was -0.254.

Take RRIRQRPPRLPRPRPRPTWQPRP: the “shrunken log2 fold change” value came to 0.186. With RRIRDRPPRLPRPRPRPKGNPRP, the “shrunken log2 fold change” value was 0.0802. With RRIRQRPPRLPRPRPRPEIDPRP, the “shrunken log2 fold change” value is -0.0412.

Take RRIRNRPPRLPRPRPRPQCWPRP: the “shrunken log2 fold change” value turned out to be 0.057. On to RRIRYRPPRLPRPRPRPNAVPRP, for which the “shrunken log2 fold change” value was -0.00911.

On to RRIRPRPPRLPRPRPRPVFEPRP, for which the “shrunken log2 fold change” value turned out to be 0.222.

With RRIRERPPRLPRPRPRPCGEPRP, the “shrunken log2 fold change” value is -0.116. For RRIRNRPPRLPRPRPRPGTHPRP the value was -0.16; for RRIRTRPPRLPRPRPRPRYTPRP, 0.0216. With RRIRTRPPRLPRPRPRPCHIPRP, the “shrunken log2 fold change” value is -0.292.

On to RRIRQRPPRLPRPRPRPQKSPRP, for which the “shrunken log2 fold change” value is 0.0118.

Consider RRIRERPPRLPRPRPRPERAPRP, for which the “shrunken log2 fold change” value is -0.024. As to RRIRDRPPRLPRPRPRPGQDPRP, the “shrunken log2 fold change” value is 0.945. As to RRIRDRPPRLPRPRPRPHGSPRP, the “shrunken log2 fold change” value turned out to be 0.208.

As for RRIRHRPPRLPRPRPRPHNQPRP, the “shrunken log2 fold change” value is -0.521. Turning to RRIRIRPPRLPRPRPRPGQGPRP, the “shrunken log2 fold change” value is -0.257. Consider RRIRYRPPRLPRPRPRPGSSPRP, for which the “shrunken log2 fold change” value is -0.853. Turning to RRIRSRPPRLPRPRPRPKFVPRP, the “shrunken log2 fold change” value is -0.0276.

For RRIRQRPPRLPRPRPRPWPMPRP, the “shrunken log2 fold change” value was -0.0342. For RRIRTRPPRLPRPRPRPTTAPRP the value was 0.0738.

As for RRIRLRPPRLPRPRPRPMHQPRP, the “shrunken log2 fold change” value was 0.136. For RRIRPRPPRLPRPRPRPYPTPRP, the “shrunken log2 fold change” value was -0.11. As to RRIRGRPPRLPRPRPRPQEKPRP, the “shrunken log2 fold change” value amounted to 0.0562. Then RRIRVRPPRLPRPRPRPFPVPRP, with -0.0106; and RRIRRRPPRLPRPRPRPWMSPRP, with 0.118; and RRIRQRPPRLPRPRPRPMRWPRP, with 0.0431. As for RRIRQRPPRLPRPRPRPCFHPRP, the “shrunken log2 fold change” value is -0.425.

Take RRIRARPPRLPRPRPRPVLAPRP: the “shrunken log2 fold change” value was 1.18. Regarding RRIRARPPRLPRPRPRPSPQPRP, the “shrunken log2 fold change” value was determined as 0.554. For RRIRSRPPRLPRPRPRPMHAPRP the value was 0.562. Regarding RRIRTRPPRLPRPRPRPMGWPRP, the “shrunken log2 fold change” value stood at 0.293. Turning to RRIRLRPPRLPRPRPRPGTGPRP, the “shrunken log2 fold change” value is -0.0967. Then RRIRARPPRLPRPRPRPTREPRP, with 0.573; and RRIRRRPPRLPRPRPRPWFRPRP, with 0.0331. For RRIRCRPPRLPRPRPRPPTSPRP, the “shrunken log2 fold change” value is 0.428. In the case of RRIRQRPPRLPRPRPRPAVPPRP, the “shrunken log2 fold change” value was -0.0193.

With RRIRFRPPRLPRPRPRPGIKPRP, the “shrunken log2 fold change” value is -0.137. On to RRIRHRPPRLPRPRPRPDWQPRP, for which the “shrunken log2 fold change” value is 0.00196.

In the case of RRIRKRPPRLPRPRPRPKIIPRP, the “shrunken log2 fold change” value is -0.135. As for RRIRARPPRLPRPRPRPIAHPRP, the “shrunken log2 fold change” value is 0.13. Take RRIRKRPPRLPRPRPRPNSDPRP: the “shrunken log2 fold change” value was -0.0158. For RRIRLRPPRLPRPRPRPGYPPRP, the “shrunken log2 fold change” value is -0.361. In the case of RRIRYRPPRLPRPRPRPITMPRP, the “shrunken log2 fold change” value was -1.13.

Consider RRIRVRPPRLPRPRPRPWTAPRP, for which the “shrunken log2 fold change” value was -0.12.

For the sequence RRIRNRPPRLPRPRPRPEHCPRP, the “shrunken log2 fold change” value was -0.0139. For RRIRKRPPRLPRPRPRPFVRPRP the value was 0.00981.

In the case of RRIRSRPPRLPRPRPRPKSYPRP, the “shrunken log2 fold change” value was -0.231.

With RRIRHRPPRLPRPRPRPHQSPRP, the “shrunken log2 fold change” value is -0.0258. Then RRIRMRPPRLPRPRPRPKAPPRP, with 1.42; and RRIRRRPPRLPRPRPRPMMEPRP, with -0.0732. As to RRIRWRPPRLPRPRPRPRWYPRP, the “shrunken log2 fold change” value is -0.0387.

With RRIRPRPPRLPRPRPRPHVKPRP, the “shrunken log2 fold change” value was -0.013.

In the case of RRIRGRPPRLPRPRPRPWRKPRP, the “shrunken log2 fold change” value was 0.12.

For RRIRGRPPRLPRPRPRPMREPRP, the “shrunken log2 fold change” value was -0.00527. With RRIRWRPPRLPRPRPRPLGNPRP, the “shrunken log2 fold change” value is -0.14.

For the sequence RRIRTRPPRLPRPRPRPCDLPRP, the “shrunken log2 fold change” value is 0.0183. In the case of RRIRKRPPRLPRPRPRPNAVPRP, the “shrunken log2 fold change” value was determined as 0.385.

For the sequence RRIRVRPPRLPRPRPRPQPWPRP, the “shrunken log2 fold change” value worked out at 0.152. Take RRIRGRPPRLPRPRPRPYCCPRP: the “shrunken log2 fold change” value was -0.0424. Then RRIRVRPPRLPRPRPRPDQDPRP, with 0.0425. In the case of RRIRDRPPRLPRPRPRPKIYPRP, the “shrunken log2 fold change” value was -0.684. For RRIRTRPPRLPRPRPRPQECPRP the value was -0.0262. Turning to RRIRQRPPRLPRPRPRPHPHPRP, the “shrunken log2 fold change” value is -0.136. Then RRIRWRPPRLPRPRPRPHPQPRP, with 0.309; and RRIRSRPPRLPRPRPRPTIHPRP, with -0.51. For RRIRIRPPRLPRPRPRPCMSPRP the value was -0.347; for RRIRKRPPRLPRPRPRPWCCPRP, -0.187. Turning to RRIRYRPPRLPRPRPRPCLLPRP, the “shrunken log2 fold change” value was -1.04. For RRIRERPPRLPRPRPRPPQGPRP the value was 0.158; for RRIRGRPPRLPRPRPRPGNDPRP, 0.381. Regarding RRIRTRPPRLPRPRPRPHRTPRP, the “shrunken log2 fold change” value was -0.615. Then RRIRVRPPRLPRPRPRPPWQPRP, with 0.44; and RRIRCRPPRLPRPRPRPMDQPRP, with 0.337; and RRIRMRPPRLPRPRPRPECGPRP, with 2.7. Turning to RRIRDRPPRLPRPRPRPLCWPRP, the “shrunken log2 fold change” value turned out to be 0.824. Take RRIRARPPRLPRPRPRPCTSPRP: the “shrunken log2 fold change” value worked out at 0.0117. For RRIRKRPPRLPRPRPRPKHMPRP the value was 0.03; for RRIRLRPPRLPRPRPRPLAFPRP, -0.092. In the case of RRIRTRPPRLPRPRPRPTFPPRP, the “shrunken log2 fold change” value was -0.0187.

Consider RRIRPRPPRLPRPRPRPWGYPRP, for which the “shrunken log2 fold change” value was -0.0649. On to RRIRNRPPRLPRPRPRPHTRPRP, for which the “shrunken log2 fold change” value came to 0.0907. For the sequence RRIRIRPPRLPRPRPRPPFQPRP, the “shrunken log2 fold change” value stood at 0.0365. For RRIRSRPPRLPRPRPRPMLLPRP the value was 3.53.

On to RRIRNRPPRLPRPRPRPGDHPRP, for which the “shrunken log2 fold change” value was -0.0463.

Regarding RRIRERPPRLPRPRPRPQKIPRP, the “shrunken log2 fold change” value was -0.12. As to RRIRDRPPRLPRPRPRPQYMPRP, the “shrunken log2 fold change” value amounted to 0.0516. In the case of RRIRCRPPRLPRPRPRPIPQPRP, the “shrunken log2 fold change” value is 0.153. Take RRIRNRPPRLPRPRPRPIQKPRP: the “shrunken log2 fold change” value is -0.287. As to RRIRIRPPRLPRPRPRPRQCPRP, the “shrunken log2 fold change” value is -0.127. For RRIRARPPRLPRPRPRPIMVPRP the value was -0.146; for RRIRPRPPRLPRPRPRPPMHPRP, 0.359; for RRIRPRPPRLPRPRPRPPKEPRP, 0.506. In the case of RRIRKRPPRLPRPRPRPPMTPRP, the “shrunken log2 fold change” value is -0.00191.

As for RRIRARPPRLPRPRPRPAFGPRP, the “shrunken log2 fold change” value is 0.6. RRIRYRPPRLPRPRPRPQWRPRP: the “shrunken log2 fold change” value was found to be 0.0697. Regarding RRIRSRPPRLPRPRPRPQPPPRP, the “shrunken log2 fold change” value was 0.489.

Turning to RRIRDRPPRLPRPRPRPVILPRP, the “shrunken log2 fold change” value is -0.146. Take RRIRDRPPRLPRPRPRPHGNPRP: the “shrunken log2 fold change” value was -0.149.

Take RRIRDRPPRLPRPRPRPNHWPRP: the “shrunken log2 fold change” value worked out at 0.0735. As to RRIRDRPPRLPRPRPRPWCVPRP, the “shrunken log2 fold change” value is 0.083. For RRIRMRPPRLPRPRPRPSGEPRP the value was 0.824. Then RRIRDRPPRLPRPRPRPLQNPRP, with 0.338; and RRIRARPPRLPRPRPRPFSYPRP, with -0.0901; and RRIRRRPPRLPRPRPRPLTHPRP, with 0.275.

Turning to RRIRARPPRLPRPRPRPKVQPRP, the “shrunken log2 fold change” value came out at 0.0571. Consider RRIRVRPPRLPRPRPRPCDWPRP, for which the “shrunken log2 fold change” value came to 0.192. Turning to RRIRSRPPRLPRPRPRPQWQPRP, the “shrunken log2 fold change” value came out at 0.0358. For RRIRTRPPRLPRPRPRPSNQPRP the value was -0.14.

Turning to RRIRYRPPRLPRPRPRPQSLPRP, the “shrunken log2 fold change” value is -0.0376.

RRIRVRPPRLPRPRPRPDNDPRP: the “shrunken log2 fold change” value is -0.232.

For RRIRCRPPRLPRPRPRPNFYPRP, the “shrunken log2 fold change” value was -0.228. As to RRIRIRPPRLPRPRPRPWYQPRP, the “shrunken log2 fold change” value is 0.00187.

Take RRIRMRPPRLPRPRPRPVDLPRP: the “shrunken log2 fold change” value was 0.405. RRIRARPPRLPRPRPRPWQWPRP: the “shrunken log2 fold change” value was -0.00151.

In the case of RRIRNRPPRLPRPRPRPKFTPRP, the “shrunken log2 fold change” value was -0.0624. For RRIRGRPPRLPRPRPRPHRPPRP, the “shrunken log2 fold change” value was -0.00248. Consider RRIRTRPPRLPRPRPRPVDWPRP, for which the “shrunken log2 fold change” value was 0.0292. For RRIRPRPPRLPRPRPRPCGVPRP the value was 0.205.
